# Assay results: patent US20250122266A1, “SMART SINGLE-DOMAIN INTRABODIES WITH PRECISION SWITCHES FOR BIOMEDICAL APPLICATIONS” (THE TEXAS A&M UNIVERSITY SYSTEM, priority 2020, published 2025)
# Legend:
# [1] = tested on: mCherry (NE-tethered mCh-lamin A); assay: NP-to-NE translocation assay of sunbody variants; assay type: cell-based; conditions: HeLa cells, GFP-tagged LaM8-LOV2 constructs, after photostimulation
# Description: (§1) To monitor light-induced F-body: antigen association or dissociation, HeLa cells seeded on glass-bottom dishes were co-transfected with the indicated plasmids shown in the figures. Confocal images were acquired 24-48 hours after transfection. The cells were imaged every 4 sec for 2 nmin unless otherwise noted. The 488-nm laser source to excite GFP was also used for photostimulation (with 1-5% output). To quantify fluorescent signals at selected areas, we used the region-of-interest (ROI) toolbox in Nikon NIS-Elements software to define the nuclear envelope (NE) or nucleoplasm (NP) regions. The “Time Measurement” tool was used to determine the mCherry intensities for moonbody variants and GFP intensities for sunbody variants. The fluorescence intensity ratio (FNE/FNP) was used as readout, with the changes in the ratio plotted as F/F0 or ΔF/F0. For spatially-restricted photostimulation, the FRAP module in the Nikon imaging system was used, with the 488-nm laser power output set at 0.2%-5%.
# The instant example screens photo-switchable nanobodies using a similar engineering approach and the NE translocation assay (see FIGS. 20A-20B). For this example, an mCherry-specific nanobody (LaM8) was used and LOV2 was inserted into flexible loop regions opposing the CDRs (see FIG. 20B and FIG. 21A), the latter of which are involved in direct antigen recognition and thus remain unperturbed.
# [2] = HeLa cells
# Description: The PM-translocation of acVHH-PB variants was used as a readout for high-content imaging. HeLa cells were seeded in a glass-bottom 96-well microplate (Cellvis, Mountain View, CA, USA) at a density of 1×10^4 cells/well and cultured in 40 μL DMEM supplemented with 10% FBS in 5% CO2 at 37° C. 12 hours later, the constructed plasmids were transfected into HeLa cells with Lipofectamine 3000. After 18 hours, the microplate was mounted on the IN Cell Analyzer 6000 (GE) high-content imaging instrument in the absence of caffeine and performed fast imaging with four captured views per well. Next, the microplate was incubated with caffeine (1 μM) for 10 min and re-imaged using the same parameters. The exported florescent images were then analyzed with an Image J PathFinder plugin for automated membrane detection and quantification. The screened top candidate mutations were further characterized by titration with increasing doses of caffeine to obtain the EC50 cures in living cells. The PM/Cytosol ratios were quantified and plotted against the dosest to obtain the apparent binding affinity. […]
# Caffeine was titrated into HeLa cells expressing YFP-acVHH-PB variants (as shown in FIG. 2C) and used the PM-to-cytosol ratio of fluorescent signal as a sensitive readout.
# [3] = aqueous solutions, purified protein; read-out: dissociation constant (Kd); cited from earlier work
# [4] = tested on: SH2 domain of Abl (NE-SH2); assay: nuclear envelope (NE) translocation assay of moonbody variants; assay type: cell-based
# Description: as §1
# The instant example provides a light-controllable monobody by inserting the LOV2 photoswitch into a fibronectin type III domain (FN3) scaffold that specifically recognizes the Src Homology 2 (SH2) domain of Abelson tyrosine kinase (Abl). […]
# SH2-mEmerald = assay: moonbody regulated protein degradation; assay type: cell-based; conditions: moonbody fused with AFB2, escalating doses of pulsed light
# Description: The plasmid encoding the moonbody fused with the F-box protein atAFB2 was co-transfected with SH2-mEmerald into HeLa cells. Cells were treated with or without a customized blue light source (470 nm, 40 μW/mm2) after 16 h transfection. Light stimulation was applied for 10% (1 min ON, 9 min OFF), 30% (3 min ON, 7 min OFF), or 50% (5 min ON, 5 min OFF). After an additional 16 hours, cells were imaged and SH2-mEmerald mean intensity were measured. Moonbody without atAFB2 was used as control.
# It was then evaluated if moonbody could be utilized to conditionally fine-tune the expression levels of its binding target. The SH2-specific moonbody was fused with the auxin signalling F-box 2 protein (AFB2), a component in the Skp1-Cu1-F-Box (SCF) E3 ubiquitin ligase complex that can recruit auxin-inducible degrons for proteasomal degradation. Monobody can directly recognize its target, thus obviating the need for auxin and the fusion of the degron tag to a target protein.
molecule,measurement,setting,value
"sunbody: anti-mCherry nanobody LaM8 with LOV2 at N-terminus (S0) and S3 loop, SEQ ID NO: 2 (protein) LATTLERIEKNFVITDPRLPDNPIIFASDSFLQLTEYSREEILGRNCRFLQGPETDRATVRKIRDAIDNQTEVTVQLINYTKSGKKFWNLFHLQPMRDQKGDVQYFIGVQLDGTEHVRDAAEREGVMLIKKTAENIDEAAKELKLMAQVQLVESGGGLVQAGGSLRLSCAVSGRPFSEYNLGWFRQAPGKEREFVARIRSSGTTVYTDSVKGRFSASRDNALERIEKNFVITDPRLPDNPIIFASDSFLQLTEYSREEILGRNCRFLQGPETDRATVRKIRDAIDNQTEVTVQLINYTKSGKKFWNLFHLQPMRDQKGDVQYFIGVQLDGTEHVRDAAEREGVMLIKKTAENIDEAAKNMGYLQLNSLEPEDTAVYYCAMSRVDTDSPAFYDYWGQGTQVTVSTPRS",light-induced change in the NE/NP ratio,[1],over 80%
"biCOSMO-L: two COSMO copies connected by longer mixed flexible and rigid linker, SEQ ID NO: 7 (protein) EVQLQASGGGLVQAGGSLRLSCTASGRTGTIYSMAWFRQAPGKEREFLATVGWSSGITYYMDSVKGRFTISRDNAKNSAYLQMNSLKPEDTAVYYCTATRAWSVGYDYWGQGTQVTVSHAAAGAPVPYPDPLEPREQKLISEEDLGGSGGAPEVQLQASGGGLVQAGGSLRLSCTASGRTGTIYSMAWFRQAPGKEREFLATVGWSSGITYYMDSVKGRFTISRDNAKNSAYLQMNSLKPEDTAVYYCTATRAWSVGYDYWGQGTQVTVS",caffeine-inducible PM translocation,[2]; 200 or 1000 nM caffeine,caffeine-induced PM translocation was no longer observed
same,"EC50 (caffeine sensitivity), result in words","[2]; PB-tagged variants, caffeine titration",Intramolecular binding
"WT: wild-type anti-caffeine single variable domain on a heavy chain (acVHH), tested as PB-tagged YFP fusion (protein) VHH: QLVESGGGLVQAGGSLRLSCAVSGRPFSEYNLGWFRQAPGKEREFVARIRSSGTTVYTDSVKGRFSASRDNATCVVHYTGMLEDGKKFDSSRDRNKPFKFMLGKQEVIRGWEEGVAQMSVGQRAKLTISPDYAYGATGHGSGSGSGVKDLLQAWDLYYHVFRRISGPPGPGSGLWHEMWHEGLEEASRLYFGERNVKGMFEVLEPLHAMMERGPQTLKETSFNQAYGRDLMEAQEWCRKYMKSGSSGGSGSGIIPPHATLVFDVELLKLEKNMGYLQLNSLEPEDTAVYYCAMSRVDTDSPAFYDYWGQGTQVTVSTPRS",Kd,[3],500 nM
"moonbody: anti-SH2 Abl monobody with LOV2 inserted at site S5 (optimized), SEQ ID NO: 1 (protein) VSSVPTKLEVVDATPTSLKISWDAYYSSWQNVKYYRITYGETGGDSPVQEFTVPGYYSTATISGLKPGSGLATTLERIEKNFVITDPRLPDNPIIFASDSFLQLTEYSREEILGRNCRFLQGPETDRATVRKIRDAIDNQTEVTVQLINYTKSGKKFWNLFHLQPMRDQKGDVQYFIGVQLDGTEHVRDAAEREGVMLIKKTAENIDEAAKELGVDYTITVYAYDTFFPGYEPNSPISINYRT",light-dependent moonbody-target interaction,"[4]; HeLa cells, NE/NP ratio of mCh signals",almost complete dissociation from NE
same,"repeated NE-to-NP translocation, number of dark-light cycles",[4]; reversibility,at least 10 dark-light cycles
same,target protein level under pulsed light,SH2-mEmerald,gradual recovery of SH2-mEmerald signals
